Measurements: publication PMC7177239, “Transitional States in Ligand-Dependent Transformation of the Aryl Hydrocarbon Receptor into Its DNA-Binding Form” (International Journal of Molecular Sciences, 2020)
Changes are numbered by the printed parent chain.

How the values were obtained:
[1] = target: heat shock protein 90 (rabbit (endogenous in reticulocyte lysate)) (UniProt P30946)
wtAhR;ARNT = assay: EMSA; conditions: MEDG (25 mM MOPS pH 7.5, 1 mM EDTA, 1 mM DTT, 10% glycerol), 150 mM KCl (no added KCl for AhRdPASB and AhR/PASB-ARNT), AhR:ARNT:buffer 1:1:8, 10 nM TCDD or 1% …
AhR F281A;ARNT = assay: EMSA; conditions: MEDG (25 mM MOPS pH 7.5, 1 mM EDTA, 1 mM DTT, 10% glycerol), 150 mM KCl (no added KCl for AhRdPASB and AhR/PASB-ARNT), AhR:ARNT:buffer 1:1:8, 10 nM TCDD or 1% …
AhR D371A;ARNT = assay: EMSA; conditions: MEDG (25 mM MOPS pH 7.5, 1 mM EDTA, 1 mM DTT, 10% glycerol), 150 mM KCl (no added KCl for AhRdPASB and AhR/PASB-ARNT), AhR:ARNT:buffer 1:1:8, 10 nM TCDD or 1% …
AhR/PASB-ARNT;ARNT = assay: EMSA; conditions: MEDG (25 mM MOPS pH 7.5, 1 mM EDTA, 1 mM DTT, 10% glycerol), 150 mM KCl (no added KCl for AhRdPASB and AhR/PASB-ARNT), AhR:ARNT:buffer 1:1:8, 10 nM TCDD or 1% …
AhR R217A;ARNT = assay: EMSA; conditions: MEDG (25 mM MOPS pH 7.5, 1 mM EDTA, 1 mM DTT, 10% glycerol), 150 mM KCl (no added KCl for AhRdPASB and AhR/PASB-ARNT), AhR:ARNT:buffer 1:1:8, 10 nM TCDD or 1% …
AhRdPASB;ARNT = assay: EMSA; conditions: MEDG (25 mM MOPS pH 7.5, 1 mM EDTA, 1 mM DTT, 10% glycerol), 150 mM KCl (no added KCl for AhRdPASB and AhR/PASB-ARNT), AhR:ARNT:buffer 1:1:8, 10 nM TCDD or 1% …
AhR A375V;ARNT = assay: EMSA; conditions: MEDG (25 mM MOPS pH 7.5, 1 mM EDTA, 1 mM DTT, 10% glycerol), 150 mM KCl (no added KCl for AhRdPASB and AhR/PASB-ARNT), AhR:ARNT:buffer 1:1:8, 10 nM TCDD or 1% …
[2] = target: T1, aryl hydrocarbon receptor (AhR), wild type (Mus musculus, UniProt P30561); assay: [3H]TCDD saturation binding, hydroxyapatite assay
T1 construct: wtAhR (mβAhR/pcDNA3), synthesized in vitro in rabbit reticulocyte lysate
T1 sequence (P30561 10-848): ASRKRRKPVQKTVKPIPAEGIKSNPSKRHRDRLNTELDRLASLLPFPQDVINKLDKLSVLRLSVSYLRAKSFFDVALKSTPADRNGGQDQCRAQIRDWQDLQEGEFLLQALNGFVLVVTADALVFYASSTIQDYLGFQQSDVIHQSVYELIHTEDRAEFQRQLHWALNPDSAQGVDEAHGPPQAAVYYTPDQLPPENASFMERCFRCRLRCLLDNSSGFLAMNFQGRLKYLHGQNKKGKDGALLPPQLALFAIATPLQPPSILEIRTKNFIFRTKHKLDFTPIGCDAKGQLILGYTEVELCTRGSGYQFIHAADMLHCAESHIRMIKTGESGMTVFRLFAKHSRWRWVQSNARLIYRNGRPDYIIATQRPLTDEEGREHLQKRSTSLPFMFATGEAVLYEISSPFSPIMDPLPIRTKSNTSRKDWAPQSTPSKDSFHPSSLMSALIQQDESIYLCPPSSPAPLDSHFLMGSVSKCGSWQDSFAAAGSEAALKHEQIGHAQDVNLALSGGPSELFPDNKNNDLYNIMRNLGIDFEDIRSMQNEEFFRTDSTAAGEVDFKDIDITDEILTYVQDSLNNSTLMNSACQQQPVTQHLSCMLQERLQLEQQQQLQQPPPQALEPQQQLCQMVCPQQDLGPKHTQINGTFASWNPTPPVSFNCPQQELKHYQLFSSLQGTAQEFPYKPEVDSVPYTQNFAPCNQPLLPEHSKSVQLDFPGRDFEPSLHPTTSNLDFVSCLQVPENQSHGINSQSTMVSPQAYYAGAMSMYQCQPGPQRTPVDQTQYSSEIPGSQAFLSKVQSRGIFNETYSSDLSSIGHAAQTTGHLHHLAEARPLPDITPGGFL

[3] = target: T2, aryl hydrocarbon receptor (AhR) (Mus musculus, UniProt P30561, D371A); assay: [3H]TCDD saturation binding, hydroxyapatite assay
T2 construct: mutant of mβAhR/pcDNA3, synthesized in vitro in rabbit reticulocyte lysate
T2 sequence (P30561 10-848 D371A): T1 sequence (P30561 10-848) with D362A

AhRdPASB, sequence (P30561 whole entry): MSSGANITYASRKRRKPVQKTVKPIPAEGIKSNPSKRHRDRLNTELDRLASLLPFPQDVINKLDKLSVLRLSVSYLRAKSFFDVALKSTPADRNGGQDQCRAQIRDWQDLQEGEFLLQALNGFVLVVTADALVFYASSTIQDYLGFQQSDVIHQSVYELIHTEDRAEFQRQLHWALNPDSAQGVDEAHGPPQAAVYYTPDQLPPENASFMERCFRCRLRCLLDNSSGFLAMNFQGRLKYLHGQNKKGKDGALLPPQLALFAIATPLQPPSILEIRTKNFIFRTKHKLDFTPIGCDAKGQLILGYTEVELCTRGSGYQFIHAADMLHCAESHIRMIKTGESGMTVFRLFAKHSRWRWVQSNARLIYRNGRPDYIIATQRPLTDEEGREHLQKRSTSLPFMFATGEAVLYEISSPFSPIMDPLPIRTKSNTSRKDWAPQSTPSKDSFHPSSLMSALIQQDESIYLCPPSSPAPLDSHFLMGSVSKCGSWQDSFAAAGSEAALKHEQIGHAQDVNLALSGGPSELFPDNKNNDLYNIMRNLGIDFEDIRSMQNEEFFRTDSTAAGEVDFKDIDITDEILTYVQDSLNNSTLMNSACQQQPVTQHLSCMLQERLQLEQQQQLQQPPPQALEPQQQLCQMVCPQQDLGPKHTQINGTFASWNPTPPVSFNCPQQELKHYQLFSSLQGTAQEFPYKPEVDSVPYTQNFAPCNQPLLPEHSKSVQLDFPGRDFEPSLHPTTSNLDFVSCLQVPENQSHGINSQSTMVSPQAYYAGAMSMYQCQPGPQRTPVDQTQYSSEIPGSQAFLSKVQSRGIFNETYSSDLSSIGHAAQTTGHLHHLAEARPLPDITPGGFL
wild type aryl hydrocarbon receptor (mouse), sequence (P30561 whole entry): as above

AhRdPASB (from UniProt P30561 1-848) (natural protein)
percent inhibition by sodium molybdate of constitutive AhR transformation/DNA binding in vitro (gel retardation) [1]: 4.3%

AhR F281A (from UniProt P30561 1-848) (natural protein)
percent inhibition by 20 mM sodium molybdate of constitutive AhR transformation/DNA binding in vitro (gel retardation) [1]: 5%

wild type aryl hydrocarbon receptor (mouse) (from UniProt P30561 1-848) (natural protein)
percent inhibition by sodium molybdate (up to 20 mM) of TCDD-dependent AhR transformation/DNA binding in vitro (gel retardation) [1]: 69.6%

DRE3
binding signal (% DNA binding (reference)) (wtAhR;ARNT): 100 | binding signal (% inhibition by molybdate) (wtAhR;ARNT): 69.6 | binding signal (% inhibition by molybdate) (AhR F281A;ARNT): 5 | binding signal (% inhibition by molybdate) (AhR D371A;ARNT): 61.7 | binding signal (% inhibition by molybdate) (AhR/PASB-ARNT;ARNT): 9.1 | binding signal (% inhibition by molybdate) (AhR R217A;ARNT): 67.1 | binding signal (% inhibition by molybdate) (AhRdPASB;ARNT): 4.3 | binding signal (% of wt DNA binding) (AhR A375V;ARNT): 55

AhR/PASB-ARNT
percent inhibition by sodium molybdate of constitutive AhR transformation/DNA binding in vitro (gel retardation) [1]: 9.1%

Clc1cc2c(cc1Cl)Oc1cc(Cl)c(Cl)cc1O2 [TCDD, 2,3,7,8-tetrachlorodibenzo-p-dioxin]
Kd [2]: 4.6 ± 0.3 nM | Kd [3]: 5 ± 0.4 nM
